45 molecules from patent US20030175703, “RNA aptamers and methods for identifying the same” (published 2003) can be followed below.

The Kd is a measure of binding affinity in units of concentration.

The labels stand for the following.
B1: D7-7 (ssRNA)
RNA: GGGAGAGAGGAAGAGGGAUGGGAGAAUACGCCUAGCGAGAAGAUACUUGGCCCCCGUGCAACCAUAACCCAGAGGUCGAU
B2: E10-11 (ssRNA)
RNA: GGGAGAGAGGAAGAGGGAUGGGCCAGAAGCGCUCACUACAACGUUGAACCCCCCGUCCACACCAUAACCCAGAGGUCGAU
B3: E9-3 (ssRNA)
RNA: GGGAGAGAGGAAGAGGGAUGGGCCAAAAGCGCAUACACCUGCGUGUUUCCCCCGCCAACAGUCAUAACCCAGAGGUCGAU
B4: E9-10 (ssRNA)
RNA: GGGAGAGAGGAAGAGGGAUGGGCCAGAACCAACUGCGGUGAACCCCCCAUACCGCGACACAUCAUAACCCAGAGGUCGAU
B5: E10-8 (ssRNA)
RNA: GGGAGAGAGGAAGAGGGAUGGGCCAAAAGCGGACUGAAGACGUGUUUCCCCCAUCUCCGUGACAUAACCCAGAGGUCGAU
B6: E9-8 (ssRNA)
RNA: GGGAGAGAGGAAGAGGGAUGGGCCAGAAGGAACUAAACACCUGAACCCCCCAUCGCGAGAGACAUAACCCAGAGGUCGAU
B7: E9-2 (ssRNA)
RNA: GGGAGAGAGGAAGAGGGAUGGGAUACCGAGCACGCAAAACACACAAUGCCCAAGCAGGACUCAUAACCCAGAGGUCGAU
B8: E9-5 (ssRNA)
RNA: GGGAGAGAGGAAGAGGGAUGGGCCAGAAGCGACACUAACGCUGAACCCCCCAGUCCCUUCACGUGCAUAACCCAGAGGUCGAU
B9: D6-4 (ssRNA)
RNA: GGGAGAGAGGAAGAGGGAUGGGAAAUUUGCCCUAGCGAGAUUAUACUUGGCCCCGCGAAAAACCAUAACCCAGAGGUCGAU
B10: E9-9 (ssRNA)
RNA: GGGAGAGAGGAAGAGGGAUGGGCCAGAACACCAGUGAACCCCCCAGCCCCUUCUCACCAGAUCAUAACCCAGAGGUCGAU
B11: E9-6 (ssRNA)
RNA: GGGAGAGAGGAAGAGGGAUGGGCCAGAAGCUAAACACUCAUAACCACGCUGAACCCCCCAACCAUAACCCAGAGGUCGAU
B12: F11-10 (ssRNA)
RNA: GGGAGAGAGGAAGAGGGAUGGGCUCGGCAGAAGACACGCAUUCACCUGGUGCCACCUCGUAACAUAACCCAGAGGUCGAU
B13: E10-6 (ssRNA)
RNA: GGGAGAGAGGAAGAGGGAUGGGGCCGUCGCCAGGAAUCAAACUGCUACUCCAUCCCGGGCACAUAACCCAGAGGUCGAU
B14: F11-6 (ssRNA)
RNA: GGGAGAGAGGAAGAGGGAUGGGCCAGCAACGUCACACGAACGGAAUACCCCCCAUUGAAAACCAUAACCCAGAGGUCGAU
B15: D4-7 (ssRNA)
RNA: GGGAGAGAGGAAGAGGGAUGGGAUAAUAGCCCCAGCGAGAUAAUACUUGGCCCCGCUACUAACAUAACCCAGAGGUCGAU
B16: F11-7 (ssRNA)
RNA: B15 RNA with U24A, C59U, A62C
B17: D4-2 (ssRNA)
RNA: B15 RNA with U24A, A25C, A26U, C32U, U44C, A45G, C59A, U60G, A62C
B18: D7-9 (ssRNA)
RNA: B15 RNA with A23U, U24A, A42U, A43C, A62C
B19: D7-6 (ssRNA)
RNA: B15 RNA with U24A, C59G, U60C, A62C
B20: D6-9 (ssRNA)
RNA: B15 RNA with U24A, A26U, A28U, U57A, A62C
B21: E10-12 (ssRNA)
RNA: B15 RNA with U24A, U57G, C59A, U60C, A62C
B22: D6-3 (ssRNA)
RNA: B15 RNA with U24A, A58G, C59U, A62C
B23: D7-2 (ssRNA)
RNA: B15 RNA with U24G, C59A, A62C
B24: D6-2 (ssRNA)
RNA: B15 RNA with U24A, U60A, A62C
B25: D7-5 (ssRNA)
RNA: B15 RNA with U24A, A26C, C32U, A62C
B26: D7-4 (ssRNA)
RNA: B15 RNA with U24G, A42C, A43G, C59G, A62C
B27: D4-9 (ssRNA)
RNA: B15 RNA with A23U, U24A, A26G, A28U, A43G
B28: D4-3 (ssRNA)
RNA: B15 RNA with A23U, U24A, U57A, A62C
B29: D7-1 (ssRNA)
RNA: B15 RNA with U24G, A28G, A42U, U57C, C59A, A62C
B30: F11-8 (ssRNA)
RNA: B15 RNA with U24G, A26U, A62C
B31: D6-10 (ssRNA)
RNA: B15 RNA with A23C, U24A, A25G, C32A, A42C, A62C
B32: D4-5 (ssRNA)
RNA: B15 RNA with U24G, A45C, A61G, A62C
B33: D6-7 (ssRNA)
RNA: B15 RNA with A23U, U24G, A25C, U60A, A62C
B34: D8-1 (ssRNA)
RNA: B15 RNA with U24A, A42G, C59A, A62C
B35: E10-4 (ssRNA)
RNA: GGGAGAGAGGAAGAGGGAUGGGUCUUAGAUAUAGAACUCCGAGAGGACUGACCGUACAGAACCAUAACCCAGAGGUCGAU
B36: E9-4 (ssRNA)
RNA: GGGAGAGAGGAAGAGGGAUGGGAGCCCGAGAAAAUAACGCGUUCCACCAUACUACUAAGCCAUAACCCAGAGGUCGAU
B37: 9.26 (ssRNA)
RNA: GGGAGAGAGGAAGAGGGAUGGGUGAUAACCACUCUGGUGAACCCCUCCCGACUUGCUCGCACAUAACCCAGAGGUCGAUAGUACUGGAUCCCCCC
modifications: 2'-F pyrimidines
B38: 9.19 (ssRNA)
RNA: GGGAGAGAGGAAGAGGGAUGGGACCAUAACGACUACUCGUGAAUCCCACCAUCAGCGCACAACAUAACCCAGAGGUCGAUAGUACUGGAUCCCCCC
modifications: 2'-F pyrimidines
B39: 9.25 (ssRNA)
RNA: GGGAGAGAGGAAGAGGGAUGGGGACCAUAACUCUAACGGGUGAAUCCCGCAUCUCGACAAUACAUAACCCAGAGGUCGAUAGUACUGGAUCCCC
modifications: 2'-F pyrimidines
B40: 9.28 (ssRNA)
RNA: GGGAGAGAGGAAGAGGGAUGGGCGCCAUACGCACAUUGCUGCAUCGCCUUCCCGUAAGAACCAUAACCCAGAGGUCGAUAGUACUGGAUCCCCCC
modifications: 2'-F pyrimidines
B41: 9.27 (ssRNA)
RNA: GGGAGAGAGGAAGAGGGAUGGGUAAUAACUGUAUGGUGAACCCACCCAAACUCCCAUGGCUACAUAACCCAGAGGUCGAUAGUACUGGAUCCCCCC
modifications: 2'-F pyrimidines
B42: 9.20 (ssRNA)
RNA: GGGAGAGAGGAAGAGGGAUGGGGACUAUACCGGCAAUCGUGCAUCCCCUGGACCUAACAAUACAUAACCCAGAGGUCGAUAGUACUGGAUCCCCCC
modifications: 2'-F pyrimidines

Changes are numbered by the printed parent chain. Where only a bound is given, the exact number is not on record here.

The target in one data set is coagulation factor Xa (FXa) (UniProt P00742;P00742 P00742:41-179,P00742:235-488).
Sequence of coagulation factor Xa (FXa) (P00742 41-179, chain 1 of 2): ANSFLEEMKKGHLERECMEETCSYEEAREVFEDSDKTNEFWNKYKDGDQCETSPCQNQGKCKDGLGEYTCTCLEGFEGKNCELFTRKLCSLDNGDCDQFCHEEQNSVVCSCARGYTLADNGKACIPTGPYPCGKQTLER
Sequence of coagulation factor Xa (FXa) (P00742 235-488, chain 2 of 2): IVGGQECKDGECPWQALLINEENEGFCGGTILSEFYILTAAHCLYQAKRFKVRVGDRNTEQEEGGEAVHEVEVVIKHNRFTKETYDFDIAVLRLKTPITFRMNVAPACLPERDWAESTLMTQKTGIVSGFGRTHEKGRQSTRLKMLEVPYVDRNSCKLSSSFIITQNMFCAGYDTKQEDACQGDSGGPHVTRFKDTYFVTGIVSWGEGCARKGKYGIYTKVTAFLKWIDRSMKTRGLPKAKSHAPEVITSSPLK
Assay: not given
Regarding B1, binding was put at a Kd of 5.8 nM. On the same count and under the same terms, the figure for B2 is 27.1 nM; for B3 it is 46.5 nM; for B4 it is 130 nM. Same read-out and setting: the figure for B5 is 28.4 nM; for B6 it is 29.8 nM. Same read-out and setting: the figure for B7 is 58.6 nM; for B8 it is 53.5 nM. For the molecule B9, the dissociation constant Kd turned out to be 8.5 nM. The same measure, in the same setting: the figure for B10 is 52.8 nM; for GAGAGCCCCAGCGAGAUAAUACUUGGCCCCGCUCUU (ssRNA) [11.F7t] it is ~1.5 nM. B11 registered a Kd of 95.1 nM.

B12 displayed a Kd of 84.4 nM.

B13 showed a Kd of 85.7 nM. The same measure, in the same setting: the figure for B14 is 33.6 nM. B15: the binding result is on record as “binds”. B16 registered a Kd of 3.6 nM. On to B17, for which the affinity, expressed as Kd, was 540 nM.

Molecule B18 displayed a Kd of 2.63 nM.

Consider B19, for which the affinity, expressed as Kd, was 3.8 nM. Still for that read-out and setting: for B20 the value was 6.5 nM; for B21, 11.7 nM; for B22, 5.9 nM.

Consider B23, for which the affinity, expressed as Kd, was 8.1 nM. Same read-out and setting: the figure for B24 is 4.6 nM; for B25 it is 26.1 nM; for B26 it is 39.3 nM. Turning to B27, the Kd was > 240 nM. Still for that read-out and setting: the figure for B28 is 65.5 nM; for B29 it is 4.7 nM; for B30 it is 2.2 nM.

With B31, the affinity, expressed as Kd, was 18.7 nM. Consider B32, for which binding was put at a Kd of 21.7 nM. Same read-out and setting: for B33 the value was 13.2 nM; for B34, 4.8 nM; for B35, 37.4 nM.

Regarding B36, binding was characterised by a dissociation constant (Kd) of 65 nM.

A further data set concerns the target thrombin (F2) (human, UniProt P00734;P00734 P00734:328-363,P00734:364-622).
Assay: not given
Take GGGAACAAAGCUGAAGUACUUAGGG (ssRNA) [TOG 25 short no stem]: the Kd was ~1000 nM. In the case of GGGAACAAAGCUGAAGUACUUACCC (ssRNA) [TOG 25 short (TOGGLE-25t)], the equilibrium dissociation constant (Kd) was ~1 nM.

For a further data set, the target named is coagulation factor IXa (FIXa) (UniProt P00740;P00740 P00740:47-191,P00740:227-461). Briefly: filter; double-filter nitrocellulose.
Sequence of coagulation factor IXa (FIXa) (P00740 47-191, chain 1 of 2): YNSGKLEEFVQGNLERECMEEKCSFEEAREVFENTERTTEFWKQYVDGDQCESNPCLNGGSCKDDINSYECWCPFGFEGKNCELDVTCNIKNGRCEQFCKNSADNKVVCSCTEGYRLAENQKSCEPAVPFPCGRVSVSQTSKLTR
Sequence of coagulation factor IXa (FIXa) (P00740 227-461, chain 2 of 2): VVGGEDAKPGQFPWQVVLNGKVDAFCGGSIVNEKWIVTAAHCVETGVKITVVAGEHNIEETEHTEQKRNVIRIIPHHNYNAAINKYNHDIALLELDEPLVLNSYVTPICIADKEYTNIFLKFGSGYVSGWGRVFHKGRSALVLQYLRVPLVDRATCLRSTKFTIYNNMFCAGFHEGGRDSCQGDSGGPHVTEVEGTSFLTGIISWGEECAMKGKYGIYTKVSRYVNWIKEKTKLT
As to B37, the Kd turned out to be 0.49 nM. On the same count and under the same terms, for B38 the value was 0.707 nM; for B39, 0.49 nM; for B40, 0.592 nM. B41 returned a Kd of 1.64 nM. Consider B42, for which the affinity, expressed as Kd, was 0.49 nM.
